Data on 4 molecules can be found in patent publication US20050002904A1 (published 2005).

Where no end group is shown, it is not given here.

In assay [1] the target is T1, p120catenin (human, UniProt O60716 1-968, limits assumed).
T1 construct: Endogenous protein in human cells; also called p120ctn
T1 sequence (looked up): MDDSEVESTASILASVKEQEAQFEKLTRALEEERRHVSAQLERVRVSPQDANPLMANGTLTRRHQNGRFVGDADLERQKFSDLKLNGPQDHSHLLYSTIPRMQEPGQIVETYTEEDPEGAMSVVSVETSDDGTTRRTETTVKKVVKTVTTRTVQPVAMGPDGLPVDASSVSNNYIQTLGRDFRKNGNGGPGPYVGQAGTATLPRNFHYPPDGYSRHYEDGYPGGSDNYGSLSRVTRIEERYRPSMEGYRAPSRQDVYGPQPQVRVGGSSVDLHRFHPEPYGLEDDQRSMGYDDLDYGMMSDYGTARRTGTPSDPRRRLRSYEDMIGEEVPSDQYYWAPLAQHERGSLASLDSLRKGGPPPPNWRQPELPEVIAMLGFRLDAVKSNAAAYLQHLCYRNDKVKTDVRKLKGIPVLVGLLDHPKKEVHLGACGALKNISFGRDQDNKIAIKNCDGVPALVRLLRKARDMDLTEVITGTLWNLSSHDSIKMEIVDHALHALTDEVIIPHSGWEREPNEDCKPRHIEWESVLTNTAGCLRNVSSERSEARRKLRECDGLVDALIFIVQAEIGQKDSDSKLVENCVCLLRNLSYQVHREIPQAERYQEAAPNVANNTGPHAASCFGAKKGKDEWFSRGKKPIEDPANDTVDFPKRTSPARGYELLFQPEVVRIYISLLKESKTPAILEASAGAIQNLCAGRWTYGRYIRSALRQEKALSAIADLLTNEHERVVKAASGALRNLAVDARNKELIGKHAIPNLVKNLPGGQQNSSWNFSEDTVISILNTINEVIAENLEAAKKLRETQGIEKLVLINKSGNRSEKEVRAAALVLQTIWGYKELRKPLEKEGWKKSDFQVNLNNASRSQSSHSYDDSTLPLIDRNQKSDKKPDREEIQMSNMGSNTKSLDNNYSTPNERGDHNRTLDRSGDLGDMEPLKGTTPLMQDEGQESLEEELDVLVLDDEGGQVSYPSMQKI
Put plainly: anti-HA co-immunoprecipitation from infected endothelial cells, anti-p120 catenin blot.
Method: Endothelial cells were solubilized in RIPA buffer, and immunoprecipitated using indicated antibodies (5 μg/1.5 mg protein). […] All blots shown are representative of those obtained in at least three separate experiments.
Cell extracts were immunoprecipitated with anti-HA (lanes 1, 2, 4, 5 and 6) or anti-p120 catenin (lane 3) monoclonal antibodies (mAb) and subjected to western immunoblot analysis with anti-p120 catenin (FIG. 17A). To determine the level of expression, the bottom portion of the blot was analyzed by immunoblotting with anti-HA mAbs (FIG. 17B).

Assay [2] deals with T2, αvβ3 integrin of endothelial cells (human, UniProt P06756 31-1048; P05106 27-788).
T2 construct: whole, on cells; On cells in the adhesion assays
Put plainly: GST pull-down from 35S-labeled endothelial cell lysate, re-immunoprecipitation with LM609.
From the text: (§1) Lysates were pre-adsorbed twice with GST-Sepharose beads to remove proteins that interact with GST-Sepharose beads non-specifically. […] The beads were then extensively washed. […] The samples were equally divided into three tubes and diluted with cold immunoprecipitation dilution buffer to adjust the concentration of SDS to <0.1%. The samples were then immediately subjected to immunoprecipitation with indicated antibodies (FIG. 10H).

Another assay concerns the target soluble αvβ5 integrin (UniProt P06756 31-992; P18084 24-719). The assay is described as follows: solid-phase ligand binding ELISA, integrin immobilized. Background: ELISA stands for enzyme-linked immunosorbent assay.
A further assay has as its target soluble α2β1 integrin (UniProt P17301 30-1132; P05556 21-728). The assay is described as above.
For assay [3], the target named is T3, α5β1 integrin of endothelial cells (human, UniProt P08648 42-1049; P05556 21-798).
T3 construct: whole, on cells; On cells in the adhesion assays
Put plainly: GST pull-down from 35S-labeled endothelial cell lysate, re-immunoprecipitation with P1D6.
From the text: as §1

A further assay has as its target T4, γ-catenin (plakoglobin) (human, UniProt P14923 1-745).
T4 sequence (looked up): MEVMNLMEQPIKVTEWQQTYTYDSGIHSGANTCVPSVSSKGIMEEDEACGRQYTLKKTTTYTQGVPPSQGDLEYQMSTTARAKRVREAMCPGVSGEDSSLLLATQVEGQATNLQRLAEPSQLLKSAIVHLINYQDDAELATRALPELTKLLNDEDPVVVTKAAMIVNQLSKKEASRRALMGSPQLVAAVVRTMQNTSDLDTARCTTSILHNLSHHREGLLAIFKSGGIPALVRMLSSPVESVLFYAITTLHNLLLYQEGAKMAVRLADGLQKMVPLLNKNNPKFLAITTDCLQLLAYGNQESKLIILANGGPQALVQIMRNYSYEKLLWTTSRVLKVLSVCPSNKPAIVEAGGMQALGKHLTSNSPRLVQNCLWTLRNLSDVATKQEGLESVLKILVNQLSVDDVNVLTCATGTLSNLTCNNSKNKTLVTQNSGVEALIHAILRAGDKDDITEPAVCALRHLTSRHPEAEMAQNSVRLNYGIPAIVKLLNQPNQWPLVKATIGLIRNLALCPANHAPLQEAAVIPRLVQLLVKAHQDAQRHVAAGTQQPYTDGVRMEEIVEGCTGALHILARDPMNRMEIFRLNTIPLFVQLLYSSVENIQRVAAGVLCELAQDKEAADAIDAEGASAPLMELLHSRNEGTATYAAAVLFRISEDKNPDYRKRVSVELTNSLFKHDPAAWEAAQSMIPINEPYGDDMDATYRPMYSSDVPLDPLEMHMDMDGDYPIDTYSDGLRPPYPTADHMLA
Put plainly: co-immunoprecipitation from HUVECs infected with wild-type PAP2b, western blot. In general terms: A western blot detects proteins with antibodies after separation by electrophoresis.

Another assay concerns the target T5, β-catenin (human, UniProt P35222 2-781).
T5 sequence (looked up): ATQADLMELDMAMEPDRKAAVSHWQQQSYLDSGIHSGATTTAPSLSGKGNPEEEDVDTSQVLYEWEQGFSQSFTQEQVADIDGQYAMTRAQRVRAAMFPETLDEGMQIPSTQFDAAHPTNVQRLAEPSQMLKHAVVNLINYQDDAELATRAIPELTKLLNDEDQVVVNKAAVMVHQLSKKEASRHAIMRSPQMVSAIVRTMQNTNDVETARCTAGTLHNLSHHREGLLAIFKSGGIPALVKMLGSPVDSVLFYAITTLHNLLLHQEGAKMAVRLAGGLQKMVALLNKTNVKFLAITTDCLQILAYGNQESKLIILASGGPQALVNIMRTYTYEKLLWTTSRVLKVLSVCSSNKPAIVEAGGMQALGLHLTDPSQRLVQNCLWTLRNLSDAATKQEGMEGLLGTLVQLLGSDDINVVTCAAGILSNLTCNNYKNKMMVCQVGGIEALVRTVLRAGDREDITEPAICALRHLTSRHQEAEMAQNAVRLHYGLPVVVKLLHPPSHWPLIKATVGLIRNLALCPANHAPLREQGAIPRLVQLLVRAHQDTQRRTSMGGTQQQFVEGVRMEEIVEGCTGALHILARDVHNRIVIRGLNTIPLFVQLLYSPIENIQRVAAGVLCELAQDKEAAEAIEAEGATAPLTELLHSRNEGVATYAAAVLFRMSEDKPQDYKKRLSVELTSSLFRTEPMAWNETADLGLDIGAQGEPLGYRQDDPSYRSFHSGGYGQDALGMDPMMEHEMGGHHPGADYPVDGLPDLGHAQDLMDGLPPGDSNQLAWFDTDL
Described as above.

Another assay concerns the target T6, VE-cadherin (human, UniProt P33151 48-784).
T6 sequence (looked up): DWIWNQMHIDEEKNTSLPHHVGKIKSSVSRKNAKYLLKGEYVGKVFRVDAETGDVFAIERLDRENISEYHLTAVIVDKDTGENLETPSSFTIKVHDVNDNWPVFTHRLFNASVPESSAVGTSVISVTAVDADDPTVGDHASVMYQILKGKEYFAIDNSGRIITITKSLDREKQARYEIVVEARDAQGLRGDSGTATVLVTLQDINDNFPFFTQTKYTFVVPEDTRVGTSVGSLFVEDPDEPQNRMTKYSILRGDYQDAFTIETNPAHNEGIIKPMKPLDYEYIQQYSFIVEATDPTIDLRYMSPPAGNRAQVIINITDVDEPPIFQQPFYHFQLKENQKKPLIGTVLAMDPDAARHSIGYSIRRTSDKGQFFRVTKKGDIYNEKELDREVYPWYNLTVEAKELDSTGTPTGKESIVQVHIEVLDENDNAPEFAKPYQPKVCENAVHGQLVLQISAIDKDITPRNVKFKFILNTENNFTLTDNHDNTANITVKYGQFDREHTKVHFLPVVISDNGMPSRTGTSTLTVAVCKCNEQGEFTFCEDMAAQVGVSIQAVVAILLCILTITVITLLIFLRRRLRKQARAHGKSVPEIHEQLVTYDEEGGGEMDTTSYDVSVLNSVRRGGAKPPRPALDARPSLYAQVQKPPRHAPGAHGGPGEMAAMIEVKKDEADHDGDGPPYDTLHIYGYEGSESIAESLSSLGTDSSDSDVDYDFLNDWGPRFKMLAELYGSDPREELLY
Described as above.

Assay [4] has as its target T1, p120catenin. The assay is described as follows: cell-based or functional assay.
A further assay has as its target Tie-2 (human, UniProt Q02763 23-1124). The assay is described as follows: co-immunoprecipitation from HUVECs, western blot of identical blots.
In the next assay the target is CD36 (human, UniProt P16671 2-472). The assay is described as above.
For assay [5], the target named is VEGF receptor-2 (VEGFR-2) (human, UniProt P35968 20-1356). The assay is described as above.
Another assay has as its target PECAM-1 (human, UniProt P16284 28-738). The assay is described as above.

Sequence of soluble αvβ5 integrin (P06756 31-992, chain 1 of 2): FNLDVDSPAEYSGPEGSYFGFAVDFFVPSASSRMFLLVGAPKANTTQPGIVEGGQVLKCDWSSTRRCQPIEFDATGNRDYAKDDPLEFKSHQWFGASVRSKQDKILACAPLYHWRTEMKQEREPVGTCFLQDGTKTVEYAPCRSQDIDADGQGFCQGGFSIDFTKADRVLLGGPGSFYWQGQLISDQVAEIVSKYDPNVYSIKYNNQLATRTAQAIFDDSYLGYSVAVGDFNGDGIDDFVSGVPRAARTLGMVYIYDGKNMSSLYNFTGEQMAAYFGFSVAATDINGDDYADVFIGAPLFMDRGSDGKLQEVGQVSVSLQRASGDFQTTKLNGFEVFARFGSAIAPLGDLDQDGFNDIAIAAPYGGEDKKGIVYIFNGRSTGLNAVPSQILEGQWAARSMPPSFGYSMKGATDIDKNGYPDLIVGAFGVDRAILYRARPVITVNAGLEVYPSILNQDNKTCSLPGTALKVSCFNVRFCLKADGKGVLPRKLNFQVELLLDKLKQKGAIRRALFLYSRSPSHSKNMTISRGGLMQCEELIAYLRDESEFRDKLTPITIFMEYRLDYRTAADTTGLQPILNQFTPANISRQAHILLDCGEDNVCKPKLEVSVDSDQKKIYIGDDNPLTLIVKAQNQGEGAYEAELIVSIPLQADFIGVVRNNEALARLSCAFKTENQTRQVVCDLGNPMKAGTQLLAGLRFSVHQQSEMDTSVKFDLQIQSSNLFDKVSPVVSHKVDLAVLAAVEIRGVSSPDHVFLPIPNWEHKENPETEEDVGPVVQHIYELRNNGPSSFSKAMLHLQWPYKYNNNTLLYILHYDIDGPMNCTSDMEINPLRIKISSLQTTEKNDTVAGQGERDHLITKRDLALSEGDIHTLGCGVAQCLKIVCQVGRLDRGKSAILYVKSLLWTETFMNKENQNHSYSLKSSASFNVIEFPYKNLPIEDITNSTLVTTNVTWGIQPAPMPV
Sequence of soluble αvβ5 integrin (P18084 24-719, chain 2 of 2): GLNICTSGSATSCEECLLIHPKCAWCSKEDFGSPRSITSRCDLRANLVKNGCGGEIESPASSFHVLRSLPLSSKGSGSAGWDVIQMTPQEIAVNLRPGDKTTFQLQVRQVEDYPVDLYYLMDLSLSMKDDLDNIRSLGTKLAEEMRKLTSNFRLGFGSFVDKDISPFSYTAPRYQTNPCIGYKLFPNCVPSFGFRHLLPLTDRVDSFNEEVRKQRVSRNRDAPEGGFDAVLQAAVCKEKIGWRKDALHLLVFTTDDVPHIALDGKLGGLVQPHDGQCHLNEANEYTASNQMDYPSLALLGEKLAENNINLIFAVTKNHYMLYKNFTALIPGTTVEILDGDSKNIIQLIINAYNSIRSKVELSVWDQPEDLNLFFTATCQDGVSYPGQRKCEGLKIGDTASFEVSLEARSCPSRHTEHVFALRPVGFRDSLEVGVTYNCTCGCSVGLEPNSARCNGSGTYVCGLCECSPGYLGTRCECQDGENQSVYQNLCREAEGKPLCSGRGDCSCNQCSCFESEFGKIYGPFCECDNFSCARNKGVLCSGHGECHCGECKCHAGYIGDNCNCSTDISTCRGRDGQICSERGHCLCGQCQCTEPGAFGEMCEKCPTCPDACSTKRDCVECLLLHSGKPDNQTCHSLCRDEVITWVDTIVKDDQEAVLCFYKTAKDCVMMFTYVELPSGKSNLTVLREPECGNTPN
Sequence of soluble α2β1 integrin (P17301 30-1132, chain 1 of 2): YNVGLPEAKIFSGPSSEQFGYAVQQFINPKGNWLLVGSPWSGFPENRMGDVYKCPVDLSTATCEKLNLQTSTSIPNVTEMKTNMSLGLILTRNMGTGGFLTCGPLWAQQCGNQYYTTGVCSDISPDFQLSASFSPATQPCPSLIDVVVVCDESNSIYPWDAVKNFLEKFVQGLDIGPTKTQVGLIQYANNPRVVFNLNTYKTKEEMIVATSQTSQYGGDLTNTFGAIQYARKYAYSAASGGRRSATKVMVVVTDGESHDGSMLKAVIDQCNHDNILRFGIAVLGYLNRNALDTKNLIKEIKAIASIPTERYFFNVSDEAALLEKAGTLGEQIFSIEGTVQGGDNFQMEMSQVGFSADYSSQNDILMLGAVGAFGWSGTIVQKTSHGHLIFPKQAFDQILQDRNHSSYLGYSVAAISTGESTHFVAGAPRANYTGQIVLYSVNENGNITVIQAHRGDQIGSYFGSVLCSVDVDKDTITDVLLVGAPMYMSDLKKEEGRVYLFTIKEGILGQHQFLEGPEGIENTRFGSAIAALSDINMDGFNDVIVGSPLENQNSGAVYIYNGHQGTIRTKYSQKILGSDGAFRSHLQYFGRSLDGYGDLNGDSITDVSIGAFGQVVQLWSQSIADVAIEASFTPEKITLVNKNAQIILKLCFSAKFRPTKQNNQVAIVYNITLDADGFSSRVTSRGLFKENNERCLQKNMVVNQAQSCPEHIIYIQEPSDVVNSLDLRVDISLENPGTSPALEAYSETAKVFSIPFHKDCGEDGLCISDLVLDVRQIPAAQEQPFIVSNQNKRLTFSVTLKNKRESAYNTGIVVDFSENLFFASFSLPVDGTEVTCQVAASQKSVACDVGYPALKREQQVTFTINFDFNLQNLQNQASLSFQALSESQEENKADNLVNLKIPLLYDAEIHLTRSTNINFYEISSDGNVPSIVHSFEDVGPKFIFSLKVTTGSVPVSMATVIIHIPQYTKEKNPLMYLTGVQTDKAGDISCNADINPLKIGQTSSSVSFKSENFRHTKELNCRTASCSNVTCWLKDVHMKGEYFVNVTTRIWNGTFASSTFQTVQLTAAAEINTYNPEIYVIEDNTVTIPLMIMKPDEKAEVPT
Sequence of soluble α2β1 integrin (P05556 21-728, chain 2 of 2): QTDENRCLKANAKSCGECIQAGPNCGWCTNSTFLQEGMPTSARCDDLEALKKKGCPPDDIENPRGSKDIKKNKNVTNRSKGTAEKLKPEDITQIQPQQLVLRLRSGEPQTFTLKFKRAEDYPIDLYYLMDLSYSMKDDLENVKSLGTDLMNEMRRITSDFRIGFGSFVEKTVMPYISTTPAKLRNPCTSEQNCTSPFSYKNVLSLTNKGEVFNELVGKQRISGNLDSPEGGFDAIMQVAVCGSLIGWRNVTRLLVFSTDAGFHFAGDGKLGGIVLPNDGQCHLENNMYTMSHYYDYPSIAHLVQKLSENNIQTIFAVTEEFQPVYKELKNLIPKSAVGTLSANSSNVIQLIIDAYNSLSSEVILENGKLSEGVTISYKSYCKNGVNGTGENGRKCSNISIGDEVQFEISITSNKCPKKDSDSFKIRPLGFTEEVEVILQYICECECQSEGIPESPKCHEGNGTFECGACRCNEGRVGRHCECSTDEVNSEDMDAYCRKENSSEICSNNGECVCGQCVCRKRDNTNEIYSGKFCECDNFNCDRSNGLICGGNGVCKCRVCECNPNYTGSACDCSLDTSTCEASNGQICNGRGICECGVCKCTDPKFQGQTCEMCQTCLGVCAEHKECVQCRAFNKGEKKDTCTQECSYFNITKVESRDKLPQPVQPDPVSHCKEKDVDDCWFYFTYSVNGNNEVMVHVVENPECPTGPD
Sequence of VEGF receptor-2 (VEGFR-2) (P35968 20-1356 limits assumed): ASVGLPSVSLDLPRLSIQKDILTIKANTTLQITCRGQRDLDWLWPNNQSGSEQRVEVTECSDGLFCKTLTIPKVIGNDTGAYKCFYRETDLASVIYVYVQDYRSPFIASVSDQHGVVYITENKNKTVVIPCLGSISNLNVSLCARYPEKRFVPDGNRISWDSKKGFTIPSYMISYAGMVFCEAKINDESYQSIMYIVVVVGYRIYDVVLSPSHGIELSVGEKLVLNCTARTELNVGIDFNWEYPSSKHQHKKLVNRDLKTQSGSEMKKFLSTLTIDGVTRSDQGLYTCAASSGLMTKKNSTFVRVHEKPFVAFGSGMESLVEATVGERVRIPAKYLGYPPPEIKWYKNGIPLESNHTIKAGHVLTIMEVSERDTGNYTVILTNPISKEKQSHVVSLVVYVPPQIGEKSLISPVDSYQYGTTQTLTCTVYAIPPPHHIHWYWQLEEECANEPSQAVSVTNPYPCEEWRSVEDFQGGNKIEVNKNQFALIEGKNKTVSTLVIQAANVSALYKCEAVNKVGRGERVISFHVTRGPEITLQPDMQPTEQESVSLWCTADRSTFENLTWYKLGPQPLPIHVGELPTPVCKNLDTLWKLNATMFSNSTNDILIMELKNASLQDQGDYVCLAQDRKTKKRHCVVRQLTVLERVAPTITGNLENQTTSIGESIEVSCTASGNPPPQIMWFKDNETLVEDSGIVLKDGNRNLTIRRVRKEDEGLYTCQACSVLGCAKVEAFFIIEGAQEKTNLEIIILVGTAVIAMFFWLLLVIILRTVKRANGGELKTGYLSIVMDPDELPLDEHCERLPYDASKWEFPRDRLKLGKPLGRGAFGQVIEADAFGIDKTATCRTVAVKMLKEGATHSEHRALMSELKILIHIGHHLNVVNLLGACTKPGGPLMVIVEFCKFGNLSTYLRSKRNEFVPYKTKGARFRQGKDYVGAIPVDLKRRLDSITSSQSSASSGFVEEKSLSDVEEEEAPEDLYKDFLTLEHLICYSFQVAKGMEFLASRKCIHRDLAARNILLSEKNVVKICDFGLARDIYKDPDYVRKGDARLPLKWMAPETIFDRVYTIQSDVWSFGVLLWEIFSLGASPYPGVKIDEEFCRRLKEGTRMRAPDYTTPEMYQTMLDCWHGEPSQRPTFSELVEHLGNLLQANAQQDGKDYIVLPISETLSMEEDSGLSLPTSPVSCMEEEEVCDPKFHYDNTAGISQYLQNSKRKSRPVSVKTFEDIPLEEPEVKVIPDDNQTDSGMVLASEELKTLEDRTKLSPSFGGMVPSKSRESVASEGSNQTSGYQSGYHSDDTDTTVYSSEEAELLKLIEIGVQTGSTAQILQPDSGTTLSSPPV
Method for soluble α2β1 integrin: (§2) Briefly, soluble α2β1, α5β1, αvβv3 and αvβ5 integrins (1 μg/ml in a solution containing 20 mM Tris pH 7.4, 150 mM NaCl, 1 mM CaCl₂, 1 mM MgCl₂ and 1 mM MnCl₂) were immobilized onto 96-well microtiter plates at 4° C. Wells were washed and blocked with 0.5% BSA. […] Plates were then washed again and the ABTS substrate (Bio-Rad) was added. All washing steps were carried out using PBS. Absorbances were read at 405 nm, and non-specific binding values were adjusted against BSA.
Method for soluble αvβ5 integrin: as §2

B1: PAP2b/VCIP retroviral construct E, lacking the entire C-terminal cytoplasmic segment (other, not shown: small tags and cut ends)
chain: MQNYKYDKAIVPESKNGGSPALNNNPRRSGSKRVLLICLDLFCLFMAGLPFLIIETSTIKPYHRGFYCNDESIKYPLKTGETINDAVLCAVGIVIAILAIITGEFYRIYYLKKSRSTIQNPYVAALYKQVGCFLFGCAISQSFTDIAKVSIGRLRPHFLSVCNPDFSQINCSEGYIQNYRCRGDDSKVQEARKSFFSGHASFSMYTMLYLVLYLQARFTWRGARLLRPLLQFTLIMMAFYTGLSRVSDHKHHPSDVLAGFAQGALVACCIVFFVSDLFKTKTT
notes: residues 1-283 follow from that; Expressed in endothelial cells, lysate used; also called Δ-C-Cyto-284-311; VCIP-Δ-C-cyto
Consider B1, for which, in the assay with p120catenin [1], the binding result is on record as “no binding”.

B2: GST-VCIP-RGD fusion protein (wild-type glutathione S-transferase-VCIP-RGD) (other)
chain: DIAKVSIGRLRPHFLSVCNPDFSQINCSEGYIQNYRCRGDDSKVQEARKS
modifications: cysteine pairing not given here; also: recombinant GST fusion
notes: also called GST-RGD-VCIP; recombinant VCIP-RGD; not shown: glutathione S-transferase (GST) encoded by the pGstag vector
With B2, the binding result is “binds” in [2], “no binding (tested: 50-350 ng per well)” with soluble αvβ5 integrin, “no binding (tested: 50-350 ng per well)” with soluble α2β1 integrin and “binds” in [3].

B3: wild-type VCIP/PAP2b, HA-tagged, expressed from pLNCX2-VCIP-RGD (other)
chain: YPYDVPDYAYPYDVPDYAYPYDVPDYAMQNYKYDKAIVPESKNGGSPALNNNPRRSGSKRVLLICLDLFCLFMAGLPFLIIETSTIKPYHRGFYCNDESIKYPLKTGETINDAVLCAVGIVIAILAIITGEFYRIYYLKKSRSTIQNPYVAALYKQVGCFLFGCAISQSFTDIAKVSIGRLRPHFLSVCNPDFSQINCSEGYIQNYRCRGDDSKVQEARKSFFSGHASFSMYTMLYLVLYLQARFTWRGARLLRPLLQFTLIMMAFYTGLSRVSDHKHHPSDVLAGFAQGALVACCIVFFVSDLFKTKTTLSLPAPAIRKEILSPVDIIDRNNHHNMM
notes: Expressed in HEK293, SW480 and HUVEC cells; also called VCIP-RGD (WT); pLNCX2-PAP2b-RGD
In the case of B3, the binding result (with γ-catenin (plakoglobin); in the assay with β-catenin; in the assay with VE-cadherin; in the assay with Tie-2; with CD36; in assay [5]) was “no binding” throughout. Further, in the assay with PECAM-1, the binding result was “no binding”. Besides, the “LEF-1 luciferase (TOPFLASH) activity in SW480 cells, fold reduction, construct B” value with p120catenin [4] is ~3.2 fold.

B4: mutant VCIP/PAP2b-RGE, HA-tagged, expressed from pLNCX2-VCIP-RGE (other)
chain: YPYDVPDYAYPYDVPDYAYPYDVPDYAMQNYKYDKAIVPESKNGGSPALNNNPRRSGSKRVLLICLDLFCLFMAGLPFLIIETSTIKPYHRGFYCNDESIKYPLKTGETINDAVLCAVGIVIAILAIITGEFYRIYYLKKSRSTIQNPYVAALYKQVGCFLFGCAISQSFTDIAKVSIGRLRPHFLSVCNPDFSQINCSEGYIQNYRCRGEDSKVQEARKSFFSGHASFSMYTMLYLVLYLQARFTWRGARLLRPLLQFTLIMMAFYTGLSRVSDHKHHPSDVLAGFAQGALVACCIVFFVSDLFKTKTTLSLPAPAIRKEILSPVDIIDRNNHHNMM
As for B4, the “LEF-1 luciferase (TOPFLASH) activity in SW480 cells, fold reduction, construct C” value with p120catenin [4] is ~4.2 fold.
